From US20210213165A1

Target: autologous blood coagulum (ABC) prepared from rat full blood
Test: rhBMP-6 mixed with rat full blood, coagulated for 60 min, serum removed; method of quantification not stated

percent bound: > 95%
Substance: recombinant human BMP6 (rhBMP6) (from UniProt P22004 375-513) (ligand)
